Columns and labels:
nisch_human NISCH [1] = biological target: nisch_human NISCH (UniProt Q9Y2I1)
nisch_human NISCH [2] = biological target: nisch_human NISCH (UniProt Q9Y2I1); remark: listed apart in the source
nisch_human NISCH [3] = biological target: nisch_human NISCH (UniProt Q9Y2I1); remark: listed apart in the source
nisch_human NISCH [4] = biological target: nisch_human NISCH (UniProt Q9Y2I1); remark: listed apart in the source

Sequence of UniProt Q9Y2I1 (Q9Y2I1 whole entry): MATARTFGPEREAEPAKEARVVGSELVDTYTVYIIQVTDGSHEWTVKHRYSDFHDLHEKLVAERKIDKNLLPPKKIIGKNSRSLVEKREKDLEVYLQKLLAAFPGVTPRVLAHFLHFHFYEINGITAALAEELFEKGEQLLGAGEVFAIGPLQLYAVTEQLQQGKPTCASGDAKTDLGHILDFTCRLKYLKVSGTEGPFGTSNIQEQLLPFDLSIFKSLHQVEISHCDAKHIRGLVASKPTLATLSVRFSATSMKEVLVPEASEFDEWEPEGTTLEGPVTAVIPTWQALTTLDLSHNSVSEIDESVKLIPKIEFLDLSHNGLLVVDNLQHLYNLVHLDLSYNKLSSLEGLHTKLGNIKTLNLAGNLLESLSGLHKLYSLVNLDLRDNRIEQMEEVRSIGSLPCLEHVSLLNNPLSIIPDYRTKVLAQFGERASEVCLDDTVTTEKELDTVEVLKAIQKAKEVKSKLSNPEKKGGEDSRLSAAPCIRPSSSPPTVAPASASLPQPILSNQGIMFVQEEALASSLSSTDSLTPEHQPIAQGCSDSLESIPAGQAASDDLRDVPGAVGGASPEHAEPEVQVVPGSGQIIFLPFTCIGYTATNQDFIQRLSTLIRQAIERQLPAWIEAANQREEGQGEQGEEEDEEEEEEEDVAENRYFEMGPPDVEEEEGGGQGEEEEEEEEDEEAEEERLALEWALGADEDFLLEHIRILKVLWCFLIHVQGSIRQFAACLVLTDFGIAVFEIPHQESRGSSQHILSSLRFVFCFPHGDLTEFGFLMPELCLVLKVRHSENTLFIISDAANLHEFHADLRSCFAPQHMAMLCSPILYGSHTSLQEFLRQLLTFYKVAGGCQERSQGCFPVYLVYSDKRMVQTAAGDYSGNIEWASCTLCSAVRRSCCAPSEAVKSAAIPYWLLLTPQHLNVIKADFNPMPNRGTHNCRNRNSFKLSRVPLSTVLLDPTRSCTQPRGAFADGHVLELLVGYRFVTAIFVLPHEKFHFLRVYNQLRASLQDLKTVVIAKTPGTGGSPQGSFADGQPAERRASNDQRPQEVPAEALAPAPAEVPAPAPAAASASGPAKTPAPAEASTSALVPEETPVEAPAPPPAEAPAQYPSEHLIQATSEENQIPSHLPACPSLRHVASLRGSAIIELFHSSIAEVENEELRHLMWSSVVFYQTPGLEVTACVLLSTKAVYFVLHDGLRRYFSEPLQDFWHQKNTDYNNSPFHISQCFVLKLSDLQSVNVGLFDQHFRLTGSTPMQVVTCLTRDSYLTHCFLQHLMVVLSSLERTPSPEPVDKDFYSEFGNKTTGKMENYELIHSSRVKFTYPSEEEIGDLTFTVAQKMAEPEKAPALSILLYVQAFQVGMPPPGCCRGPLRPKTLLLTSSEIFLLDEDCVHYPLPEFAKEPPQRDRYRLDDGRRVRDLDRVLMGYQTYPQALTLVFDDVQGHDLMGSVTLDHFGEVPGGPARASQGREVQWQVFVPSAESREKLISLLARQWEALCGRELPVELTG

Substance: Ras-related protein Rab-14 (Rattus norvegicus (Rat)) (from UniProt P61107) N124I
- effect of a mutation on the interaction (nisch_human NISCH [1]): decreasing interaction

Substance: Ras-related protein Rab-14 (Rattus norvegicus (Rat)) (from UniProt P61107) Q70L
- effect of a mutation on the interaction (nisch_human NISCH [2]): increasing interaction

Substance: Ras-related protein Rab-14 (Rattus norvegicus (Rat)) (from UniProt P61107) S25N
- effect of a mutation on the interaction (nisch_human NISCH [3]): decreasing interaction
- effect of a mutation on the interaction (nisch_human NISCH [4]): disrupting interaction
